The target of assay [1] is Human TGF-β1 (Acrobiosystems, TG1-H421) (human) (UniProt P01137). Briefly: ELISA, human TGF-β1 coated, mouse anti-human Fc-HRP detection.
The target in assay [2] is Human TGF-β3 (PeproTech, 100-36E) (human) (UniProt P10600). Briefly: ELISA, human TGF-β3 coated, mouse anti-human Fc-HRP detection. (An ELISA detects its analyte on a solid surface through an enzyme-linked reagent.)

The record followed here is patent publication US20250297009A1.

Chain of Human TGF-β1 (Acrobiosystems, TG1-H421) (human) (P01137 279-390 limits assumed): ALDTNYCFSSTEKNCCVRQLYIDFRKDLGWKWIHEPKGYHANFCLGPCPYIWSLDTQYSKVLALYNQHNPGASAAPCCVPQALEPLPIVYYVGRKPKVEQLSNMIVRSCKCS
Chain of Human TGF-β3 (PeproTech, 100-36E) (human) (P10600 301-412 limits assumed): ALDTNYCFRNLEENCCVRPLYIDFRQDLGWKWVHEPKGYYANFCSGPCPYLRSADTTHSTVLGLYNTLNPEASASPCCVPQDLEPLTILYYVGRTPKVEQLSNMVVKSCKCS

In the case of TGF-βRII (Fc fusion), the EC50 (read off the curve) amounted to 0.3 nM in assay [1] and 0.2 nM in assay [2].

A word on the EC50 (read off the curve): it is the concentration at which the effect is half-maximal. A lower EC50 (read off the curve) goes with higher potency in that assay.
